Measurements from US12180485B2, “Repressible control of gene expression” (TRUSTEES OF BOSTON UNIVERSITY, priority 2020, dated 2024).

B1: SEQ ID NO: 804: inducible system polypeptide, probably Table 20 (GID-GAI) (protein)
chain: MAPKKKRKVGIHGVPAAKRDHHHHHHQDKKTMMMNEEDDGNGMDELLAVLGYKVRSSEMADVAQKLEQLEVMMSNVQEDDLSQLATETVHYNPAELYTWLDSMLTDLNSGGSGSGSSGGSGTDKGKSVSEKVDALTKIITGMNYDQFDKKRSVIEDTGRENAEREKFKKIISLYLTVIYHILKNIVNINARYVIGFHCVERDAQLYKEKGYDINLKKLEEKGFSSVTKLCAGIDETAPDKRKDVEKEMAERAKESIDSLESANPKLYANYIKYSDEKKAEEFTRQINREKAKTALNAYLRNTKWNVIIREDLLRIDNKTCTLFRNKAVHLEVARYVHAYINDIAEVNSYFQLYHYIMQRIIMNERYEKSSGKVSEYFDAVNDEKKYNDRLLKLLCVPFGYCIPRFKNLSIEALFDRNEAAKFDKEKKKVSGNSGSGPKKKRKV
B2: Split 263/264: RfxCas13d split at 263/264 (SEQ ID NOs: 14, 15) with GIB CID domains (protein)
chain 1: IEKKKSFAKGMGVKSTLVSGSKVYMTTFAEGSDARLEKIVEGDSIRSVNEGEAFSAEMADKNAGYKIGNAKFSHPKGYAVVANNPLYTGPVQQDMLGLKETLEKRYFGESADGNDNICIQVIHNILDIEKILAEYITNAAYAVNNISGLDKDIIGFGKFSTVYTYDEFKDPEHHRAAFNNNDKLINAIKAQYDEFDNFLDNPRLGYFGQAFFSKEGRNYIINYGNECYDILALLSGLRHWVVHNNEEESRISRTWLYNLDKNL
chain 2: DNEYISTLNYLYDRITNELTNSFSKNSAANVNYIAETLGINPAEFAEQYFRFSIMKEQKNLGFNITKLREVMLDRKDMSEIRKNHKVFDSIRTKVYTMMDFVIYRYYIEEDAKVAAANKSLPDNEKSLSEKDIFVINLRGSFNDDQKDALYYDEANRIWRKLENIMHNIKEFRGNKTREYKKKDAPRLPRILPAGRDVSAFSKLMYALTMFLDGKEINDLLTTLINKFDNIQSFLKVMPLIGVNAKFVEEYAFFKDSAKIADELRLIKSFARMGEPIADARRAMYIDAIRILGTNLSYDELKALADTFSLDENGNKLKKGKHGMRNFIINNVISNKRFHYLIRYGDPAHLHEIAKNEAVVKFVLGRIADIQKKQGQNGKNQIDRYYETCIGKDKGKSVSEKVDALTKIITGMNYDQFDKKRSVIEDTGRENAEREKFKKIISLYLTVIYHILKNIVNINARYVIGFHCVERDAQLYKEKGYDINLKKLEEKGFSSVTKLCAGIDETAPDKRKDVEKEMAERAKESIDSLESANPKLYANYIKYSDEKKAEEFTRQINREKAKTALNAYLRNTKWNVIIREDLLRIDNKTCTLFRNKAVHLEVARYVHAYINDIAEVNSYFQLYHYIMQRIIMNERYEKSSGKVSEYFDAVNDEKKYNDRLLKLLCVPFGYCIPRFKNLSIEALFDRNEAAKFDKEKKKVSGNS
modifications: GIB CID domains attached
B3: SEQ ID NO: 801: inducible system polypeptide, probably Table 20 (GID-GAI) (protein)
chain: MLDLASLILIEKKKSFAKGMGVKSTLVSGSKVYMTTFAEGSDARLEKIVEGDSIRSVNEGEAFSAEMADKNAGYKIGNAKFSHPKGYAVVANNPLYTGPVQQDMLGLKETLEKRYFGESADGNDNICIQVIHNILDIEKILAEYITNAAYAVNNISGLDKDIIGFGKFSTVYTYDEFKDPEHHRAAFNNNDKLINAIKAQYDEFDNFLDNPRLGYFGQAFFSKEGRNYIINYGNECYDILALLSGLRHWVVHNNEEESRISRTWLYNLDKNLDNEYISTLNYLYDRITNELTNSFSKNSAANVNYIAETLGINPAEFAEQYFRFSIMKEQKNLGFNITKLREVMLDRKDMSEIRKNHKVFDSIRTKVYTMMDFVIYRYYIEEDAKVAAANKSLPDNEKSLSEKDIFVINLRGSFNDDQKDALYYDEANRIWRKLENIMHNIKEFRGNKTREYKKKDAPRLPRILPAGRDVSAFSKLMYALTMFLDGKEINDLLTTLINKFDNIQSFLKVMPLIGVNAKFVEEYAFFKDSAKIADELRLIKSFARMGEPIADARRAMYIDAIRILGTNLSYDELKSGGSGSGSSGGSGTMAASDEVNLIESRTVVPLNTWVLISNFKVAYNILRRPDGTFNRHLAEYLDRKVTANANPVDGVFSFDVLIDRRINLLSRVYRPAYADQEQPPSILDLEKPVDGDIVPVILFFHGGSFAHSSANSAIYDTLCRRLVGLCKCVVVSVNYRRAPENPYPCAYDDGWIALNWVNSRSWLKSKKDSKVHIFLAGDSSGGNIAHNVALRAGESGIDVLGNILLNPMFGGNERTESEKSLDGKYFVTVRDRDWYWKAFLPEGEDREHPACNPFSPRGKSLEGVSFPKSLVVVAGLDLIRDWQLAYAEGLKKAGQEVKLMHLEKATVGFYLLPNNNHFHNVMDEISAFVNAECLDLASLIL
B4: SEQ ID NO: 805: inducible system polypeptide, probably Table 20 (GID-GAI) (protein)
chain: MLDLASLILIEKKKSFAKGMGVKSTLVSGSKVYMTTFAEGSDARLEKIVEGDSIRSVNEGEAFSAEMADKNAGYKIGNAKFSHPKGYAVVANNPLYTGPVQQDMLGLKETLEKRYFGESADGNDNICIQVIHNILDIEKILAEYITNAAYAVNNISGLDKDIIGFGKFSTVYTYDEFKDPEHHRAAFNNNDKLINAIKAQYDEFDNFLDNPRLGYFGQAFFSKEGRNYIINYGNECYDILALLSGLRHWVVHNNEEESRISRTWLYNLDKNLDNEYISTLNYLYDRITNELTNSFSKNSAANVNYIAETLGINPAEFAEQYFRFSIMKEQKNLGFNITKLREVMLDRKDMSEIRKNHKVFDSIRTKVYTMMDFVIYRYYIEEDAKVAAANKSLPDNEKSLSEKDIFVINLRGSFNDDQKDALYYDEANRIWRKLENIMHNIKEFRGNKTREYKKKDAPRLPRILPAGRDVSAFSKLMYALTMFLDGKEINDLLTTLINKFDNIQSFLKVMPLIGVNAKFVEEYAFFKDSAKIADELRLIKSFARMGEPIADARRAMYIDAIRILGTNLSYDELKALADTFSLDENGNKLKKGKHGMRNFIINNVISNKRFHYLIRYGDPAHLHEIAKNEAVVKFVLGRIADIQKKQGQNGKNQIDRYYETCIGKSGGSGSGSSGGSGTMAASDEVNLIESRTVVPLNTWVLISNFKVAYNILRRPDGTFNRHLAEYLDRKVTANANPVDGVFSFDVLIDRRINLLSRVYRPAYADQEQPPSILDLEKPVDGDIVPVILFFHGGSFAHSSANSAIYDTLCRRLVGLCKCVVVSVNYRRAPENPYPCAYDDGWIALNWVNSRSWLKSKKDSKVHIFLAGDSSGGNIAHNVALRAGESGIDVLGNILLNPMFGGNERTESEKSLDGKYFVTVRDRDWYWKAFLPEGEDREHPACNPFSPRGKSLEGVSFPKSLVVVAGLDLIRDWQLAYAEGLKKAGQEVKLMHLEKATVGFYLLPNNNHFHNVMDEISAFVNAECLDLASLIL

Tested on: mCherry expression in HEK293 FT cells
Experiment: Inducible split RfxCas13d (GIB, RAP, ABA, Dano, GRZ CID domains; NES/NLS variants) mCherry knockdown, leakiness and inducibility
Type: cell-based
Conditions: for performance in the tested conditions: inducible polypeptide systems of Tables 18-22
Text: FIG. 6A-6C is a series of schematics and graphs showing that split RfxCas13d's reconstituted and functioned to knockdown mCherry expression in HEK293 FT cells FIG. 6A is a schematic showing split sites selected throughout RfxCas13d sequence. FIG. 6B is a bar graph showing mCherry expression under 4 conditions for gibberellin-inducible, rapalog-inducible, and abscisic acid-inducible inducible split Cas13d designs. In FIG. 6B and FIG. 6C, the left-right order of the bars for each split site is the same as the left-right order of the legend for each bar graph.
FIG. 7A-7E is a series of schematics and graphs showing a functional and inducible split Cas13d design. FIG. 7A is a bar graph showing additional split sites selected in RfxCas13d and tested with GIB CID domains. […] In FIG. 7A and FIG. 7C, the left-right order of the bars for each split site is the same as the left-right order of the legend. FIG. 7B is a schematic showing the design to compartmentalize splits. Compartmentalizing moieties facilitates the reduction of leakiness. […] FIG. 7D is a schematic showing the experiment flow for testing reversibility of the inducible split Cas13d's.
FIG. 8A-8B is a series of schematics and graphs showing that split RfxCas13d's reconstituted upon drug-induced dimerization and knocked down mCherry expression in HEK293 FT cells. FIG. 8A is a bar graph showing quantification of system performance. The left-right order of the bars for each split site is the same as the top-down order of the legend. […] System performance in leakiness score (left axis) and induced activity (right axis) by GIB, RAP, ABA, and Dano-inducible split Cas13d designs.
FIG. 10A-10B is a series of schematics and graphs showing performance optimization through separating split Cas13d moieties in different cellular compartments. […] The left-right order of the bars for each bar graph is the same as the top-down order of the legend.
FIG. 11 is a series of schematics and graphs showing the testing of reversed orientation (dark grey dots) of CID domains with respect to split Cas13d pieces against original orientations (light grey dots) designed for GIB, ABA, Dano, and GRZ inducible systems.

[1] = RfxCas13d split with GIB CID domains

| Molecule | performance in the tested conditions | knockdown efficiency [1] | leaky off state activity [1] |
| --- | --- | --- | --- |
| B1 | highest performance | – | – |
| B2 | – | over 60% | minimum leaky off state activity |
| B3 | highest performance | – | – |
| B4 | highest performance | – | – |
